One block for each binder: values may come before it.
Legend:
[1] = target: PKC-ε (purified isoform) (Homo sapiens (Human)) (UniProt Q02156); assay: competitive ELISA on purified PKC-ε vs anti-PKC-ε Ab; PRE 100 µM
[2] = target: PKC-ε (purified isoform) (Homo sapiens (Human)) (UniProt Q02156); assay: competitive ELISA on purified PKC-ε vs anti-PKC-ε Ab; PRE 200 µM
[3] = target: PKC-ε (purified isoform) (Homo sapiens (Human)) (UniProt Q02156); assay: competitive ELISA on purified PKC-ε vs anti-PKC-ε Ab; PRE 50 µM
[4] = target: PKC-βI (purified isoform) (Homo sapiens (Human)), P05771; assay: competitive ELISA on purified PKC-βI vs anti-PKC-βI Ab; PRE 100 µM; conditions: remark: other sources report otherwise
[5] = target: PKC-βI (purified isoform) (Homo sapiens (Human)), P05771; assay: competitive ELISA on purified PKC-βI vs anti-PKC-βI Ab; PRE 50 µM; conditions: remark: other sources report otherwise
[6] = target: PKC-βI (purified isoform) (Homo sapiens (Human)), P05771; assay: competitive ELISA on purified PKC-βI vs anti-PKC-βI Ab; PRE 200 µM; conditions: remark: other sources report otherwise
[7] = target: PKC-βI (purified isoform) (Homo sapiens (Human)) (UniProt P05771); assay: as above
[8] = target: PKC-βI (purified isoform) (Homo sapiens (Human)) (UniProt P05771); assay: competitive ELISA on purified PKC-βI vs anti-PKC-βI Ab; PRE 50 µM
[9] = target: PKC-βI (purified isoform) (Homo sapiens (Human)) (UniProt P05771); assay: competitive ELISA on purified PKC-βI vs anti-PKC-βI Ab; PRE 100 µM
[10] = target: PKC-δ (purified isoform) (Homo sapiens (Human)) (UniProt Q05655); assay: competitive ELISA on purified PKC-δ vs anti-PKC-δ Ab; PRE 200 µM
[11] = target: PKC-δ (purified isoform) (Homo sapiens (Human)) (UniProt Q05655); assay: competitive ELISA on purified PKC-δ vs anti-PKC-δ Ab; PRE 100 µM
[12] = target: PKC-δ (purified isoform) (Homo sapiens (Human)) (UniProt Q05655); assay: competitive ELISA on purified PKC-δ vs anti-PKC-δ Ab; PRE 50 µM
[13] = target: PKC-βII (purified isoform) (Homo sapiens (Human)) (UniProt P05771); assay: competitive ELISA on purified PKC-βII vs anti-PKC-βII Ab; PRE 100 µM
[14] = target: PKC-βII (purified isoform) (Homo sapiens (Human)) (UniProt P05771); assay: competitive ELISA on purified PKC-βII vs anti-PKC-βII Ab; PRE 50 µM
[15] = target: PKC-βII (purified isoform) (Homo sapiens (Human)) (UniProt P05771); assay: competitive ELISA on purified PKC-βII vs anti-PKC-βII Ab; PRE 200 µM

Chain of PKC-ε (purified isoform) (Homo sapiens (Human)) (Q02156 whole entry, canonical isoform): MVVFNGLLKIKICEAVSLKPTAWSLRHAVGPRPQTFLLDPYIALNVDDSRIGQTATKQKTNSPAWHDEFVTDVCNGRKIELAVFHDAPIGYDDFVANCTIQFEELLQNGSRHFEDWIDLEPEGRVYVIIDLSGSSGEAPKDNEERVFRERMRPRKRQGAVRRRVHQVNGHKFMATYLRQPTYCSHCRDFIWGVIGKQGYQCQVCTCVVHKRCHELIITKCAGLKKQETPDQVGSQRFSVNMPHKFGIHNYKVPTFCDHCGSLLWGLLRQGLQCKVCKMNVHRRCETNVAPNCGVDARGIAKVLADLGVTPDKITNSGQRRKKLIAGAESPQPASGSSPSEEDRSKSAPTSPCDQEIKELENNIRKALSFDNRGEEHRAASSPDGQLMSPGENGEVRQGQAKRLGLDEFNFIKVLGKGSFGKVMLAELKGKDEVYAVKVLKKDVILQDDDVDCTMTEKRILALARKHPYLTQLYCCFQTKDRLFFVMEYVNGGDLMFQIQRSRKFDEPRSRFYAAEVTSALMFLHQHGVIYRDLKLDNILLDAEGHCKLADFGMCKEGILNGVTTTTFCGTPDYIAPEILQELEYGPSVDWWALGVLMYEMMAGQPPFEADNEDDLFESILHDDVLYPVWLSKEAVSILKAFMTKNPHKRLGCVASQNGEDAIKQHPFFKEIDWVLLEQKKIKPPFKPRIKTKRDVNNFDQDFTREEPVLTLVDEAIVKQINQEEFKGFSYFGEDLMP
Chain of PKC-βI (purified isoform) (Homo sapiens (Human)), P05771 (P05771 2-671 limits assumed): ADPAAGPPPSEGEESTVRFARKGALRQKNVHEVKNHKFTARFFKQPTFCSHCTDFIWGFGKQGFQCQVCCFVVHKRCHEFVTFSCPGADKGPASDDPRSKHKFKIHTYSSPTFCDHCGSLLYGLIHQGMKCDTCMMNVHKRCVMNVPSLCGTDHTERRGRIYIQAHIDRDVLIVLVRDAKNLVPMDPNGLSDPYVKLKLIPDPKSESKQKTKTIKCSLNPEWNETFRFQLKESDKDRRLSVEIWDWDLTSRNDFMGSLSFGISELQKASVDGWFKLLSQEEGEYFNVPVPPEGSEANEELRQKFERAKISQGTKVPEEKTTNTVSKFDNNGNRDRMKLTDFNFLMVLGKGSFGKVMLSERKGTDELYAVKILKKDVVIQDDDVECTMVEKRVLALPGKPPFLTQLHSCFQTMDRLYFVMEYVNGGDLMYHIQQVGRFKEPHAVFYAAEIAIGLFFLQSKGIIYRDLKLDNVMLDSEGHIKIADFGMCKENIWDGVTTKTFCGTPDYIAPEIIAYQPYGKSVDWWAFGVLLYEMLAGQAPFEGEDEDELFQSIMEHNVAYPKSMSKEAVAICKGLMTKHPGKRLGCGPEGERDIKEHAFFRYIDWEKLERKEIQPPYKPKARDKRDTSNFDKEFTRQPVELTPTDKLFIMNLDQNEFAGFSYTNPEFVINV
Chain of PKC-βI (purified isoform) (Homo sapiens (Human)) (P05771 2-671 limits assumed): as above
Chain of PKC-δ (purified isoform) (Homo sapiens (Human)) (Q05655 whole entry, stated change not applied, canonical isoform): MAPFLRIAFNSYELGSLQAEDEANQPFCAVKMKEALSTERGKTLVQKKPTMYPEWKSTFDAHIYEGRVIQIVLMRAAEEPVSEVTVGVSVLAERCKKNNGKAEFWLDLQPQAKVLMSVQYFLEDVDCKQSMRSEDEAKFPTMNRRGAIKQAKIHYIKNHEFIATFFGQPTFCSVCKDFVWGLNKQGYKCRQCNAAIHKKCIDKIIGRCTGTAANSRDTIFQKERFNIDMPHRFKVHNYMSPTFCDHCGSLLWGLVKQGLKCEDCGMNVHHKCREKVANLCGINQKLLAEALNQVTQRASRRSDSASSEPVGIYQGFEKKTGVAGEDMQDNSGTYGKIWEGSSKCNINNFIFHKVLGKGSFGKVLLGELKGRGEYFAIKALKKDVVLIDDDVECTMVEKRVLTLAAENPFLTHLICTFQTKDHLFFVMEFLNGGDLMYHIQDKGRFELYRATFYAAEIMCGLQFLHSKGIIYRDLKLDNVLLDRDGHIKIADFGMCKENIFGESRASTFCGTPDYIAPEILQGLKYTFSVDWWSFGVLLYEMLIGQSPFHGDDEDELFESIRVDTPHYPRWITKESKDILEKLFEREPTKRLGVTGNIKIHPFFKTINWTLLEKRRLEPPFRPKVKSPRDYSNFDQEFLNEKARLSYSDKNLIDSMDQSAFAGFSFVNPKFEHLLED
Chain of PKC-βII (purified isoform) (Homo sapiens (Human)) (P05771 other isoform, or with tags, fused parts or gaps limits assumed): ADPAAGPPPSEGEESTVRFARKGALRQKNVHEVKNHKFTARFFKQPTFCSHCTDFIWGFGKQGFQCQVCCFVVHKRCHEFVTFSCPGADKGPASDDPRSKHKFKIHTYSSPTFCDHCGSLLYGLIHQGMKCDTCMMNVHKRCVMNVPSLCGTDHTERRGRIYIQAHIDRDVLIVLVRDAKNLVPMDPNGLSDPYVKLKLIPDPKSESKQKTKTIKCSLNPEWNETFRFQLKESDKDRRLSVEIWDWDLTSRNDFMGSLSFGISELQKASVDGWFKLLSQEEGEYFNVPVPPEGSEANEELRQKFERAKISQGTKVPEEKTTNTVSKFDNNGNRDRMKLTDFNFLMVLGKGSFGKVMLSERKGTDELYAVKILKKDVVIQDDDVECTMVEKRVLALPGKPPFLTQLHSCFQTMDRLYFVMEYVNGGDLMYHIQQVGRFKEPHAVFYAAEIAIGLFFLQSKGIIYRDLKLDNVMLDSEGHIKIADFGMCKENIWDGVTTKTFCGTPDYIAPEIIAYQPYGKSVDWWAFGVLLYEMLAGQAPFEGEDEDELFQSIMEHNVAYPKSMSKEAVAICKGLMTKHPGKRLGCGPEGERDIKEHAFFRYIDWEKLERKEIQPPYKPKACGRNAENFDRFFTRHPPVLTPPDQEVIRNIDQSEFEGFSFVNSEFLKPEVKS

B4: PRE 10 (peptide)
peptide: Ac-ISIGILNQADK-NH2
- binding capacity (%) [10]: 9.47%
- binding capacity (%) [7]: 0%
- binding capacity (%) [8]: 3.77%
- binding capacity (%) [11]: 0%
- binding capacity (%) [12]: 0%
- binding capacity (%) [9]: 4.35%

B5: PRE 7 (peptide)
peptide: Ac-ISIGILQNADK-NH2
- binding capacity (%) [13]: 11.1%
- binding capacity (%) [14]: 5.42%
- binding capacity (%) [15]: 2.59%

B6: PRE 11 (peptide)
peptide: Ac-RDAQNLIGISI-NH2
- binding capacity (%) [7]: 12.5%
- binding capacity (%) [13]: 11%
- binding capacity (%) [8]: 9.86%
- binding capacity (%) [14]: 7.14%
- binding capacity (%) [15]: 6.4%
- binding capacity (%) [9]: 14.2%

Second part, the binder after the results:

- binding capacity (%) [1]: 5.47%
- binding capacity (%) [2]: 0.83%
- binding capacity (%) [3]: 19.8%
B1: PRE 1 (peptide)
peptide: RRKKGGKDFVVKR

- binding capacity (%) [4]: 0%
- binding capacity (%) [5]: 0%
- binding capacity (%) [6]: 0%
B2: PRE 8 (peptide)
peptide: ILEDKGGDAQNLIGISI

- binding capacity (%) [7]: 0%
- binding capacity (%) [8]: 0%
- binding capacity (%) [9]: 0%
B3: PRE 5 (peptide)
peptide: Ac-AKGIQEVKGGKDAQNLIGISI-NH2

— patent US20100041597A1, “PEPTIDES TARGETED TO PROTEIN KINASE C ISOFORMS AND USES THEREOF” (priority 2005, published 2010)
